Assay results: the DeepSol protein solubility set

Assay: soluble on expression in E. coli; label from the status in PepcDB or PDB records

Sequence	soluble on expression in E. coli
KFGIARSGAMDEDALRMANILLGNKQDEAGIELCLKGGKYEFLDENYFVLSGAEFEAKLDNQKIKTCKVYQANKGDILELDLAKIGFRGYLCVAGGFEVKSFLNSKSSDAKMGAGVFEGRALQKDDILNTHNTFIPFNLEARECENPLFKSPKEPIIRVILGTNEDAFTQKGIETFLNTTYKVGLKSDRMAIYAESSESIEHKNSADIISDPAVFGSIQVPKSGIPIILMAGRQSTGGYTKIATVIENDLSLLAQAKLGSSFKFQSISMQEALELYKQREMK	not soluble
MGSDKIHHHHHHMSELIEVTHLTFTYTGQAAPALKDVSLTIHAGEFITLVGATGSGKTTLLKQLKHELWPAGERTGSLTFQDTAIQALSPVESAQQIGYVAQDPQVQPIMATVMEELAFPLENLGYPTATINDRIAEIANYLDLNHLLQRAIETLSGGQLQLVNLASVLALKPQVILLDESTAQLDPTTAQKFLNILQQVHDELDLTIVLTEHRLSRVMALTDRVALLANGQVLTVAEPTPALQQMAATPALQAFVPPVPHFFLDHNLVVTPLPLSVTMGRRALRQSSWRFQAVTTRQPAQSGPRESVLVATGVSFHYPTTGDILHQVELQVATGDWLAIIGKNGSGKSTLLTVLAGLQKPQHGKVRLNQQVIWRMKNQDRVLQVGYLSQNPTEQFNGDSVREELTAQAQLRGTSVAQRVDQMLIRCHLTAVADQNSFDLSGGQQQLLGLGLALMTEPQVLLLDEPTKGLDPDTKLRIGQLLQQAHETGLTIIMASHDMDFSAQFADTCTFMFNGRVNPPQATRLFFTQNFLATTAVNRLLRQQVPQALFSQDVVRTDKGGE	not soluble
VGAIMLDGKATRDEIFGDLKQRVAALDAAGRTPGLGTILVGDDPGSQAYVRGKHADCAKVGITSIRRDLPADISTATLNETIDELNANPDCTGYIVQLPLPKHLDENAALERVDPAKDADGLHPTNLGRLVLGTPAPLPCTPRGIVHLLRRYDISIAGAHVVVIGRGVTVGRPLGLLLTRRSENATVTLCHTGTRDLPALTRQADIVVAAVGVAHLLTADMVRPGAAVIDVGVSRTDDGLVGDVHPDVWELAGHVSPNPGGVGPLTRAFLLTNVVELAERR	soluble
MGGIPDITPYPLTYSLGGVIPLSSVLEMLWVEKYRPRSLDDIVDQKHVVERLKQFVKQRNMPHLLFAGPPGTGKTTAAHALAHDLFGENYRQYMLELNASDERGINVIREKVKEFARSRTPPEIPFKIVLLDEADNMTSDAQQALRRLMELYSSVTRFILIANYPSKIIDPIQSRCAFFRFQPLSKQDVIERLRYIAENEGVDYEEEALDAIYEISEGDMRKAINVLQAASYLGKVTVDAVYRVVGMAKPREVREMLATALKGDFTAARSLLRKIMIEYGMSGEDVARQIHRELFSTELKMPEELRVLAADYLGEVHYRLVEGSDDDIQLSAFLAWLTMMSRKLEV	soluble
MSSQSNTGNSIEAPQLPIPGQTNGSANVTVDGAGVNVGIQNGSQGQKTGMDLYFDQALNYMGEHPVITGFGAFLTLYFTAGAYKSISKGLNGGKSTTAFLKGGFDPKMNSKEALQILNLTENTLTKKKLKEVHRKIMLANHPDKGGSPFLATKINEAKDFLEKRGISK	soluble
MDKSDMQRTVDSLRSQLNIERTPITVSAAELRRFTESQEDPLVNPIDKKVNPWAEKSKCSML	not soluble
MSHHHAPVDFEKEASILRNHFNNAEIDLLLLIKKHVMYGAKNPTKWKFIQQSRLIRFKRELKAHISLFKDETRNKIDKLTYRVYLDCVNEYEDEMEARYQTKKEVDIQNDDYLSESDALIQISEDMANYWQKIAPSKYKQVVKETKDSNGVLKYAIATSLINVLGDGIRNVIDQSGRKYRPGAYMEMASRGAFFNVGLNAMKRVLGRYEHELVQVSAHVRSCPRCAPWQGEVLSVNYESNEYKTLQEAENDGLFHPNCHHFLYSYFEGDETDEPIPYDEEEYEAQSKQRYYERGIRDWKTKDILAEGPSKQYTAGKVKQWEEALQEHLNNN	not soluble
TPEHRAVAREVAAETFVLLKNENHLLPLEEKGKIALIGPMADARNNMCGMWSMTCTPSRHGTLLEGIRSAVGDKAEILYAKGSNVYYDAEMEKGAVGIRPLERGNDQQLLAEALRTAARADVIVAAVGECAEMSGESPSRTNLEIPDAQQDLLKALVKTGKPVVLLLFTGRPLILNWESEHIPSILNVWFGGSETGDAVADVLFGKAVPCGKLTTTFPRSVGQLPLFYNHLNTGRPDPDNRVFNRYASNYLDESNEPLYPFGYGLSYTDF	not soluble
MAHHHHHHMYNFFASVNAPSTPPQKQPQVEPSLPPSACHHHVAASSLLDGMTAHNASLWLLNASQQRSLSYAHSGGGGDNLAGAEQEKRTAASQFYSTFPTAAAPPPSSGVQSLHGVGQQPAQQPHKHLCTSILQSYEHVGNSATPAPGLSSSLPLQEHQSSTWVTLRGGSLRMQLDGVPYSPFASTNASAASQPPDAAHGNEQYYDSTSHHRGYSASSASSIRHTLQVPASPQQQHQQQRLPISSSVWTAATPATAMPASLFASSSIRPLTNTTYPGYSCDWSGNALPTLPAAVPAPYVSGAALPVSSRSQTTYSVMPQPPQSGQPCSPTAHPATHSIMILHPTLDRGTAAILQASADAVNTPLHCLTDVKASEISGTTHYLEVVQGGGSVGDNSKHSYPSSIPIASRQPQPPLQQYYLQPTPQQHQQGQQLAAEQPPVHSCFLTNDGNMSHFVNHTTAAGAIIQPPSSMLSDIASLASLSSRTAGAGRSGAWQQPSTADMGSYKDQSSKLQLQQQQQQQQQQRRPVSAARQVTYTRGIPRRNRDRAVLFVGQLNYEATEADVSQVFSCYGKPLSVVVLKDKGKATKKGGAGGITGGSAATHRKVGGSAFVTYGTTLEADTAIMALHGRYNAKGDDVENVDNSKYLQVSYGQQTGLISAFGMMHAEKLHASKPENPIPLLVKDRTNGKL	not soluble
MEVAPEQPRWMAHPAVLNAQHPDSHHPGLAHNYMEPAQLLPPDEVDVFFNHLDSQGNPYYANPAHARARVSYSPAHARLTGGQMCRPHLLHSPGLPWLDGGKAALSAAAAHHHNPWTVSPFSKTPLHPSAAGGPGGPLSVYPGAGGGSGGGSGSSVASLTPTAAHSGSHLFGFPPTPPKEVSPDPSTTGAASPASSSAGGSAARGEDKDGVKYQVSLTESMKMESGSPLRPGLATMGTQPATHHPIPTYPSYVPAAAHDYSSGLFHPGGFLGGPASSFTPKQRSKARSCSEGRECVNCGATATPLWRRDGTGHYLCNACGLYHKMNGQNRPLIKPKRRLSAARRAGTCCANCQTTTTTLWRRNANGDPVCNACGLYYKLHNVNRPLTMKKEGIQTRNRKMSNKSKKSKKGAECFEELSKCMQEKSSPFSAAALAGHMAPVGHLPPFSHSGHILPTPTPIHPSSSLSFGHPHPSSMVTAMG	soluble
MSLDWNRLKPTINQKVSAELNRPFAIRGDLGVVWERQKQETGWRSWVPWPHVHAEDIILGNPPDIPEVTMVHLPRVEATLAPLALLTKTVWLPWIKLEKPDARLIRLSEKNNNWTFNLANDDNKDANAKPSAWSFRLDNILFDQGRIAIDDKVSKADLEIFVDPLGKPLPFSEVTGSKGKADKEKVGDYVFGLKAQGRYNGEPLTGTGKIGGMLALRGEGTPFPVQADFRSGNTRVAFDGVVNDPMKMGGVDLRLKFSGDSLGDLYELTGVLLPDTPPFETDGRLVAKIDTEKSSVFDYRGFNGRIGDSDIHGSLVYTTGKPRPKLEGDVESRQLRLADLGPLIGVDSGKGAEKSKRSEQKKGEKSVQPAGKVLPYDRFETDKWDVMDADVRFKGRRIEHGSSLPISDLSTHIILKNADLRLQPLKFGIAGGSIAANIHLEGDKKPMQGRADIQARRLKLKELMPDVELMQKTLGEMNGDAELRGSGNSVAALLGNSNGNLKLLMNDGLVSRNLMEIVGLNVGNYIVGAIFGDDEVRVNCAAANLNIANGVARPQIFAFDTENALINVTGTASFASEQLDLTIDPESKGIRIITLRSPLYVRGTFKNPQAGVKAGPLIARGAVAAALATLVTPAAALLALISPSEGEANQCRTILSQMKKEGHHHHHH	soluble
MSLDRTLRGRVEGKVVLITGATSGIGKATARKLAEAGAKVLTIARDEHKIAETQAEFAELGLTLQVYQGDLADLSQGEAITRQIVAEHGGVDILINNAGRSIRRAIEDSFDRFHDLERTMQLNYFGTLKVIMGLLPTMIEKKKGHIINISSIGVLTNAPRFSAYVASKSALDAWVRTAASEFADKGVNFSIINMPLVKTPMVAPTKVYEQVPMMTPEEAADLVCDTIINKHVRLATRLGVFGQVIHALAPRVAQVIMNTSEGHHHHHH	not soluble
MGSDKIHHHHHHMYKLNQNETPLFNALMEYVNRDTIPFHVPGHKKGNGIDKEFKNFIGENPFKIDVTVFKLVDSLHHPTGPIKKAQELAADAYGSKAAFYSVNGTSGAIQGMILSVVGDGDKIIVPRNVHKSVTAGIILSGAVPVYMHPEVDRRVGIAHGVSPETVGETLKNNPDAKAVLLINPTYYGVSTDIKKIADIVHSYDIPLIVDEAHGPHLSFNDRLPVSALKAGADMCAQSTHKIIGALTQMSLLHVNSDRIDMNRVQQIMNLLQTTSPSYILMASMDCARRQIALHGKELLDGTIDLCNYARREINKIPGFYCFGEEVLGKPGSYAFDPTKLTITCTDLGITGYDLDMLLANDYHIQVELSDLYNVLAVGSFGDTKENIDALINALRQISKSISSTVKNKKNSFIDIPDVPERILSPRDAFNGAKESMLIKDSVGKTSGEFLMAYPPGIPVLCPGEIITQEIIDYVSDLKAAGLYVQGTEDPDVNYIKVLK	not soluble
METNMTFVLKEFDALKSHFNDTVKIILQREKKDKIEDLPNPRKEELQFLTAVLNQLEAKIDELKPRSLASYVHVFYGAMLLVCKDVENNLRVMEKKENSLLFTRLMDGMGISDENIPTSEQNIMFYRGLNKFLNFIYESNDSRKGLKKEHFLQVLSLKKIYSLAKLSYEQEEAAENNALAKLTADGKTKANANSFHVEKPIDSSIVEQFKSWDEMKGALHQLILDELSDKNVAKISALSQARSAQLKFLQTMAEQLDKIPNQSLEPSEKMAILAGAMYIVRGQIAQEYGKDPLSNDKISATVIHTGLSTILHANADCCEDKEVLIAAANKFIRHMVIERPEQSNKKITKESVRENNMFSDIAGFQLISVLTLIQNMIKTCRTDAIEACVTKRKEELEALKPKKEGYSIASSVTGYVGSWFKKAPSMSEEDEEDDLKDQNTAEETSKPTV	not soluble
MKQLKSLDSDLEKAIGRISGGLYIITAQKGEVKGAMLASWVSQASFNPPGFTVAVAKDRAIESLMQVGDRFVLNILEEGNYQILMKHFLKRFPPGADRFAGVKTQTASNGSPILTDALAYLECEVASRMECSDHWIVYSQVTNGRVAKAEGLTAVHHRKVGNYYLEHHHHHH	not soluble
MVNQEKTLDVGFTHADFAALLDRYDYHFNPGDIVAGTVFSIEPKGALIDIGAKTAAYIPIQEMSINRIESPEEVLQPNETREFFILADENEEGQLTLSIRRIEYMRAWERVRQLQAEDATVRSQVFATNRGGALVRIEGLRGFIPGSHISTRVNKEELVGEELPLKFLEVDEERNRLVLSHRRALVERKMNKLEVGEVVVGTVRGIKPYGAFIDIGGVSGLLHISEISHDHIDTPHSVFNVNDQVKVMIIDLDAERGRISLSTKQLEPEPGDMVKNPQLVYEKAEEMAERYRQQLLQQQQQAAGETPEEGMEDIPEATEDDSPAPILQEALEHHHHHH	not soluble
LAADQFIVDRPMPEDPYGKTIIAGYHWFSDWGRDTMISLPGLTISTGRPEVARSIIRTFARYVDQGMLPNRFPDAGEQPEYNTVDATLWYFEAVRAYYSATDDDTLLGELFPILADIIDWHCRGTRYNIHLDAADGLLYAGVTGVQLTWMDAKVDDWVVTPRIGKPIEVNALWYNALRTMAKFARHLGKPHQEYEAMADRAKYRFSRFWNDETGYCYDVLDSPNGDDAALRPNQIFAVSLPESPLTPAQQRSVVEVCGRRLLTSHGLRSLAPDHPQYQGKYGGNQYQRDGAYHQGTVWGWLLGPFVLAHLRVYKNPEQARQFLEPMANHLTKHGLGSLSEIFDGDAPMTARGCIAQAWTVAEVLRAWFATES	not soluble
